# Results: patent US20240254220A1, “COMBINED THERAPY USING ANTI-CD300C ANTIBODY” (CentricsBio, Inc., priority 2021, published 2024)
# B1: CL7: anti-CD300c monoclonal antibody, VH3VL1 phage library, VH SEQ ID 327, VL SEQ ID 328 (antibody, V domains shown)
# VH: EVQLLESGGGLVQPGGSLRLSCAASGFTFSRYAMSWVRQAPGKGLEWVSAISGSGGSTYYADSVKGRFTISRDNSKNTLYLQMNSLRAEDTAVYYCARSSQGIFDIWGQGTLVTVSS
# VL: QSVLTQPPSASGTPGQRVTISCSGNNIGTRRVHWYQQLPDTAPKLLIYSKNNRPSGVPDRFSGSKSGTSASLAISGLRSEDEADYYCAAWDDSLSGPVFGGGTKLTVL
# modifications: CL7 Heavy Chain Variable Region; CL7 Light Chain Variable Region
# Assays:
# [1] = system: colon cancer cell line (CT26) tumor; assay: In vivo cancer growth inhibition, CT26 model, CL7 dose range; parameters: species or system BALB/c mice; details: 1, 5, 10 or 25 mg/kg i.p. on D11, D14, D18, D21; 25 days
# Description: In order to identify anticancer effects of the anti-CD300c monoclonal antibody CL7 under in vivo conditions, a colon cancer cell line (CT26) at 2×10^5 cells was transplanted by subcutaneous injection into 8-week-old BALB/c mice to prepare syngeneic mouse tumor models. Animal breeding and experiments were all conducted in a SPF facility. On day 11 (D11) after the transplantation of the colon cancer cell line, the mice with a tumor size of 50 mm^3 to 100 mm^3 were administered the anti-CD300c monoclonal antibody 1 mg/kg, 5 mg/kg, 10 mg/kg, or 25 mg/kg, respectively, and for a control group, the mice were administered the same amount of phosphate buffered saline (PBS). Specifically, the mice were intraperitoneally injected with each dosage twice a week for two weeks (a total of 4 times on D11, D14, D18, and D21). The tumor volume was measured for 25 days.
# [2] = system: colon cancer cell line (CT26) tumor; assay: Nanostring Immune profiling of CT26 tumor tissue; type: in vivo, BALB/c mice; details: 25 mg/kg i.p., tumor RNA, vs control
# Description: In order to identify changes in expression of immune cell- and tumor microenvironment-related markers when solid cancer models are administered the anti-CD300c monoclonal antibody (CL7) produced in Example 1, a colon cancer cell line (CT26) at 2×10^5 cells was transplanted by subcutaneous injection into 8-week-old BALB/c mice to prepare syngeneic mouse tumor models. Animal breeding and experiments were all conducted in a specific pathogen free (SPF) facility. In addition, 12 days after transplantation of the colon cancer cell line, the mice with a tumor size of 50 mm^3 to 100 mm^3 were separately administered the anti-CD300c monoclonal antibody, and for a control group, the mice were injected with the same amount of phosphate buffered saline (PBS). The mice were intraperitoneally injected with 25 mg/kg twice a week for two weeks over a total of 4 times. On day 25 after the injection, the mice were euthanized, and the tumor tissue was prepared. RNA was extracted and purified therefrom, and changes in dendritic cell markers, macrophage markers, tumor microenvironment (TME) markers, Th1 response markers, or Th2 response markers were identified through Nanostring Immune profiling.
# On the basis of the Nanostring Immune profiling results obtained in Example 2.1, it was identified which immune checkpoint markers show a significant difference in expression compared with the control group when syngeneic mouse tumor models are administered the anti-CD300c monoclonal antibody.
# [3] = system: MDA-MB-231 (human breast cancer cell line); assay: MDA-MB-231 cancer cell growth inhibition (CCK-8); type: cell-based; details: 10 μg/mL each, 5 days
# From the text: In order to identify cancer cell growth inhibitory effects by combined administration of the anti-CD300c monoclonal antibody CL7 and an immunotherapeutic agent, the cancer cell growth inhibitory effects were compared using A549 (human lung cancer cell line) and MDA-MB-231 (human breast cancer cell line). Specifically, the cells were dispensed into a 96-well plate at 2×10^4 cells (A549) or 3×10^4 cells (MDA-MB-231) under 0% fetal bovine serum (FBS) conditions, and at 6×10^3 cells (A549) or 1×10^4 cells (MDA-MB-231) under 0.1% fetal bovine serum conditions. Subsequently, the cells were treated with the anti-CD300c monoclonal antibody and Imfinzi at 10 μg/mL alone or in combination, followed by incubation for 5 days. For a control group, the cells were treated with the same amount of phosphate buffer solution (PBS). Then, the cells were treated with CCK-8 (DOJINDO), and the absorbance was measured at OD 450 nm. The results are shown in FIG. 33 (A549) and FIG. 34 (MDA-MB-231).
# B16F10 melanoma cells = assay: In vivo cancer growth inhibition, B16F10 melanoma model; parameters: species or system C57BL/6 mice; details: CL7 25 mg/kg, α-PD-1 10 mg/kg, α-CTLA4 4 mg/kg i.p. twice a week, 4 times; 20 days
# Description: In order to identify whether the anti-CD300c monoclonal antibody CL7 is effective in other carcinomas in addition to a CT26 colon cancer mouse model, an additional experiment was conducted with melanoma mouse models. B16F10 melanoma cells at 7×10^5 cells were transplanted by subcutaneous injection into 8-week-old male C57BL/6 mice to prepare syngeneic mouse tumor models. Animal breeding and experiments were all conducted in a SPF facility. On day 8 after transplantation of the melanoma cell line, the mice with a tumor size of 50 mm^3 to 100 mm^3 were intraperitoneally injected with 25 mg/kg of CL7, 10 mg/kg of α-PD-1, and 4 mg/kg of α-CTLA4. More specifically, the mice were injected, twice a week for 2 weeks (over a total of 4 times), with each of the anti-CD300c monoclonal antibody, the anti-PD-1 antibody, the anti-CD300c monoclonal antibody+the anti-PD-1 antibody (Combo), and the anti-CD300c monoclonal antibody+the anti-PD-1 antibody+the anti-CTLA-4 antibody (Triple), and for a control group, the mice were injected with the same amount of phosphate buffered saline (PBS). The cancer size was measured for 20 days.
# [4] = system: colon cancer cell line (CT26) tumor; assay: Tumor volume, complete remission and long-term survival, CT26 model, combined administration; type: in vivo, BALB/c mice; details: CL7 25 mg/kg, anti-PD-1 10 mg/kg, anti-CTLA-4 4 mg/kg i.p. D11, D14, D18
molecule,measurement,setting,value
B1,growth of CT26 colon cancer (tumor volume),[1],delayed the growth of CT26 colon cancer in a dose-dependent manner
same,"expression of M1 macrophage markers CCR7, CD80",[2],significantly increase
same,"expression of Th1 response markers Tbx21, Stat1, Stat4, Ifn-g, Cxcr3",[2],increase
same,"expression of agonistic immune checkpoints ICOS, OX40, Gitr, Cd27, Cd28",[2],increases
same,"expression of dendritic cell markers Bst2, CCL8, Xcl1",[2],significantly increase
same,"expression of inhibitory immune checkpoints PD-1, CTLA-4, Lag3",[2],increases
same,"expression of tumor microenvironment markers vegfa, pdgfrb, Col4a1, Hif1a",[2],reduction
same,cancer cell growth inhibitory effect compared with control group,"[3]; MDA-MB-231, 0.1% FBS (second statement)",19%
same,cancer cell growth inhibitory effect compared with control group,"[3]; MDA-MB-231, 0.1% FBS as printed (first statement)",19%
same,cancer growth (cancer size),B16F10 melanoma cells,inhibited
same,growth of cancer (tumor volume),[4],inhibited
